This is an account of results in publication PMC5901963 (Nature, 2017).

The target in series [1] is bacTMEM175 from Streptomyces collinus (Streptomyces collinus). Description: cross-linking.
Series [2] addresses bacTMEM175 from Chryseobacterium sp (Chryseobacterium sp). In words: cross-linking.
The series “crystal structure” deals with the molecule itself. In words: crystal structure.

Take “bacTMEM175 from Streptomyces collinus (natural protein)”: in series [1], the stoichiometry N amounted to 4.

“bacTMEM175 from Chryseobacterium sp (natural protein)” came in with a stoichiometry N in series [2] of 4.

B1: TMEM175 from Chamaesiphon minutus (CmTMEM175) (natural protein, UniProt K9UJK2 1-203, looked up)
chain: MVEAPEQSETGRIEAFSDGVFAIAITLLVLEIKVPQHKIVETVGLVSSLLSLWPSYLAFLTSFASILVMWVNHHRIFSLVARTDHAFFYWNGLLLMLVTFVPFPTALLAEYLIHPQARVAASVYAGIFLAIAIVFNRLWKHAATADRLLAQKADRHEVDAITKQYRFGPGLYLVAFALSFISVWLSVGVCFVLAIYFALRSNA
Regarding B1, in the series “crystal structure”, the “stoichiometry N” value is 4.
